Changes are numbered by the printed parent chain. Where “and” joins values, the source holds several entries; their conditions need not be identical. Equal values may be shown once.

Test [1] deals with T1, human IL-23 (human, UniProt P29460 23-328).
T1 sequence 1: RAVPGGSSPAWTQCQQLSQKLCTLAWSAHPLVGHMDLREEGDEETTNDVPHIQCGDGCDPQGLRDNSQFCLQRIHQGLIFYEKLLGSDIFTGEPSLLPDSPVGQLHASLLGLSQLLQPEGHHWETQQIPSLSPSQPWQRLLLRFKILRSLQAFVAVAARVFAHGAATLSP
T1 sequence 2: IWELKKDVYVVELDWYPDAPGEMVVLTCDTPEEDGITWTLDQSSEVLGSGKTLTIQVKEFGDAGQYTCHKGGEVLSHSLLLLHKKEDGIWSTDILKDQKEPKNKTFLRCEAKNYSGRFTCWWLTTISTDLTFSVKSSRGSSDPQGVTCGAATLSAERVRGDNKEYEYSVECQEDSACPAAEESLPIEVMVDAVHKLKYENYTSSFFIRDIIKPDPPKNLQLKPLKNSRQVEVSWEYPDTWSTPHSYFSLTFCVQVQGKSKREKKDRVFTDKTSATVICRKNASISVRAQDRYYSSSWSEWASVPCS
The test can be described thus: cell-based or functional assay.

Test [2] has as its target T1, human IL-23. The test can be described thus: cell-based or functional assay. The source holds these as a separate data set.
Test [3] addresses T1, human IL-23. The test can be described thus: BIAcore (SPR), antibody amine-coupled to CM5 chip, IL-23 as analyte; first replicate determination. As to the method:
(§1) BIAcore determinations are performed essentially as described at Example 4 of commonly assigned U.S. Patent Application Publication No. 2007/0048315. Briefly, ligands (anti-IL-23 mAbs) are immobilized on a BlAcore CM5 sensor chip using standard amine-coupling procedure. IL-23 is diluted in PBS to produce various concentrations. Kinetic constants for the various interactions are determined using BIAevaluation software 3.1. The Kd is determined using the calculated dissociation and association rate constants.

Test [4] concerns the target T1, human IL-23. Description: BIAcore (SPR), antibody amine-coupled to CM5 chip, IL-23 as analyte; second replicate determination. As to the method:
as §1
Table 4 provides the Kd values as determined by BlAcore, including replicate determinations.

Test [5] addresses T1, human IL-23. The test can be described thus: cell-based or functional assay. This is another data set of the same source.
In test [6] the target is T1, human IL-23. Description: BIAcore (SPR), essentially as in Example 4. On the procedure:
as §1

The target in test [7] is T1, human IL-23. Description: BIAcore (SPR), antibody amine-coupled to CM5 chip, IL-23 as analyte. On the procedure:
as §1

Test [8] addresses T2, non-linked (native) human IL-23 comprising two disulfide-linked chains, human p19 and human p40 (human, UniProt P29460 23-328).
T2 sequence 1: T1 sequence 1
T2 sequence 2: T1 sequence 2
The test can be described thus: KinExA, antibody pre-incubated with native human IL-23 in solution; third replicate determination. As to the method:
(§2) The equilibrium dissociation constant (Kd) for anti human IL-23 antibodies is determined using the KinExA 3000 instrument. Sapidyne Instruments Inc., Boise Id., USA. KinExA uses the principle of the Kinetic Exclusion Assay method based on measuring the concentration of uncomplexed antibody in a mixture of antibody, antigen and antibody-antigen complex. The concentration of free antibody is measured by exposing the mixture to a solid-phase immobilized antigen for a very brief period of time. In practice, this is accomplished by flowing the solution phase antigen-antibody mixture past antigen-coated particles trapped in a flow cell. Data generated by the instrument are analyzed using custom software. Equilibrium constants are calculated using a mathematical theory based on the following assumptions: […]
(§3) Binding of anti-IL-23p19 antibodies is assessed in a competition binding assay, in which antibodies are pre-incubated with non-linked (native) human IL-23 comprising two disulfide-linked chains, human p19 (SEQ ID NO: 47) and human p40 (GenBank Accession No. P29460), at a series of concentrations. […] The amount of antibody captured by the PMMA particles is then detected using a fluorescently labeled secondary antibody.

Test [9] addresses T2, non-linked (native) human IL-23 …. Description: KinExA, antibody pre-incubated with native human IL-23 in solution; fourth replicate determination. As to the method: as §2, §3
Test [10] shares this target. Description: KinExA, antibody pre-incubated with native human IL-23 in solution; second replicate determination. On the procedure: as §2, §3
The target is the same in test [11]. The test can be described thus: KinExA, antibody pre-incubated with native human IL-23 in solution; first replicate determination (64 ± 40). On the procedure: as §2, §3
In test [12] the target is T1, human IL-23. Description: BIAcore (SPR), antibody amine-coupled to CM5 chip, IL-23 as analyte; first determination, lower end of range 72-104. As to the method: as §1
Test [13] addresses T1, human IL-23. Description: BIAcore (SPR), antibody amine-coupled to CM5 chip, IL-23 as analyte; first determination, upper end of range 72-104. On the procedure: as §1
For test [14], the target named is T1, human IL-23. Description: BIAcore (SPR), antibody amine-coupled to CM5 chip, IL-23 as analyte; third determination, lower end of range 81-129. On the procedure: as §1
The target in test [15] is T1, human IL-23. The test can be described thus: BIAcore (SPR), antibody amine-coupled to CM5 chip, IL-23 as analyte; third determination, upper end of range 81-129. As to the method:
as §1

Test [16] concerns the target T1, human IL-23. Description: BIAcore (SPR), antibody amine-coupled to CM5 chip, IL-23 as analyte; second determination, lower end of range 68-100. As to the method: as §1
Test [17] addresses T1, human IL-23. The test can be described thus: BIAcore (SPR), antibody amine-coupled to CM5 chip, IL-23 as analyte; second determination, upper end of range 68-100. As to the method: as §1

B1: murine antibody 13B8 (mouse IgG1/kappa) (antibody, V domains shown)
VH: HVQLQQSGPELVRPGASVELSCKASGYIFITYWMTWMKQRPGQGLEWIGQIFPASGSADYNEMFEGKATLTVDTSSNTAYMQLSSLTSEDSAVYFCARGGGGFAYWGQGTLVTVSA
VL: DIQMTQSPASLSASVGETVTITCRTSENIYSYLAWYQQKQGKSPQLLVYNAKTLAEGVPSRFSGSGSGTQFSLKINRLQPEDFGRYFCQHHYGIPFTFGSGTKLEIKR
notes: also called m13B8; mouse 13B8
As for B1, the “IC50 for blocking of Ba/F3 cell proliferation” value (shortened to “IC50 for blocking”) in the test with human IL-23 [1] is 0.7 nM. For the same molecule, in the test with human IL-23 [2], the “Splenocyte assay IC50 (IL-17 production by mouse splenocytes)” value (from here on “Splenocyte assay IC50”) was 0.064 nM and 0.028 nM and 0.054 nM. For the same molecule, the Kd with human IL-23 [3] came out at 0.173 nM; with human IL-23 [4], 0.228 nM.

B2: humanized anti-IL-23p19 antibody 13B8-b (antibody, human IgG1, kappa, V domains shown)
VH: QVQLVQSGAEVKKPGASVKVSCKASGYIFITYWMTWVRQAPGQGLEWMGQIFPASGSADYNEKFEGRVTMTTDTSTSTAYMELRSLRSDDTAVYYCARGGGGFAYWGQGTLVTVSS
VL: DIQMTQSPSSLSASVGDRVTITCRTSENIYSYLAWYQQKPGKAPKLLIYNAKTLAEGVPSRFSGSGSGTDFTLTISSLQPEDFATYYCQHHYGIPFTFGQGTKVEIKR
notes: also called hum13B8-b; Hum 13B8-b
Consider B2, for which, in the test with human IL-23 [5], the “IC50 in the Ba/F3 proliferation assay (340 pM IL-23)” value stood at 187 pM; the “IC50 in the KIT225 STAT-3 phosphorylation assay (138 pM human IL-23)” value amounted to 130 pM; the “IC50 in the human splenocyte assay (IFN-γ production, 170 pM human IL-23)” value lay in the range of 0.059 to 0.144 nM. The “IC50 for blocking” value with human IL-23 [1] is 1.2 nM and 1.1 nM. The “Splenocyte assay IC50” value with human IL-23 [2] was 0.11 nM and 0.221 nM. The molecule further returned a Kd with human IL-23 [6] of 0.297 nM. The Kd with human IL-23 [7] was 0.077 nM and 0.129 nM and 0.069 nM and 0.116 nM.

B3: humanized anti-IL-23p19 antibody 13B8-c (antibody, human IgG1, kappa, V domains shown)
VH: B2 VH with N61A, E62Q, F64L, E65Q
VL: B2 VL
notes: also called hum13B8-c; h13B8-c
For B3, in the test with human IL-23 [1], the “IC50 for blocking” value is 1.1 nM and 2.2 nM. In the test with human IL-23 [2], the “Splenocyte assay IC50” value was 0.515 nM. Also, the Kd with human IL-23 [7] was in the range of 0.092 to 0.153 nM.

B4: humanized anti-IL-23p19 antibody 13B8-a (antibody, human IgG1, kappa, V domains shown)
VH: B2 VH with K63M
VL: B2 VL
notes: also called hum13B8-a; h13B8-a
B4: the “IC50 for blocking” value in the test with human IL-23 [1] was 1.1 nM. Moreover, the Kd is 0.365 nM in test [8]; 0.447 nM in test [9]; 0.11 nM in [10]; 0.064 nM in test [11]; at least 0.072 nM with human IL-23 [12]; at most 0.104 nM with human IL-23 [13]. Besides, the Kd with human IL-23 [14] is at least 0.081 nM; in the test with human IL-23 [15] it was at most 0.129 nM; in the test with human IL-23 [16], at least 0.068 nM; in the test with human IL-23 [17], at most 0.1 nM.

These data come from patent publication US20100272731A1 (SCHERING, published 2010).
